The subject of experiment [1] is preformed non-radioactive thrombi in the jugular vein. The experiment is described as follows: Rabbit jugular vein thrombosis model: inhibition of thrombus accretion during thrombolysis with t-PA. It counts as in vivo, New Zealand white rabbits. The settings on record: FIG. 1; three hours infusion of t-PA alone or along with heparin (0.75 mg/kg). The method, then:
The experiments are performed with New Zealand white rabbits (weighing 2.3-3.5 kg) anaesthesized by intravenous (marginal ear vein) injection of 30 mg/kg sodium pentobarbital. Through a paramedical incision of the neck, the jugular veins and the right carotid artery are exposed. The right carotid artery is cannulated with a 1.5 mm diameter polyethylene cannula for blood sampling. The two jugular veins are isolated, cleared over a distance of 2 cm, small side branches are ligated. Each jugular segment is emptied of blood and blood flow is temporarily occluded both proximally and distally by two angiostaths, 1.5 cm apart. A 10 cm length 3.0 TiCron braided polyester suture, presoaked in a collagen solution, is introduced lengthwise in the lumen of the isolated jugular vein for a distance of 4 cm to avoid the embolization of the thrombus to be produced. […] The effects of standard heparin and recombinant desulfato hirudin in preventing thrombus extension during thrombolysis with t-PA are assessed as their ability to inhibit the accretion of ^125 I-fibrinogen onto autologous non-radioactive thrombi preformed in the jugular vein of rabbits. […] The ratio of the radioactivity of the thrombus to the circulating fibrinogen radioactivity is used to quantify thrombus size, which is then expressed as μg or ^125 I-fibrinogen accreted onto the thrombus.

For experiment [2], the system named is 125I-fibrinogen labelled thrombi in the jugular vein. The experiment is described as follows: Rabbit jugular vein thrombosis model: enhancement of t-PA induced lysis. It counts as in vivo, New Zealand white rabbits. To be noted: 0.5 mg t-PA infused i.v. over 3 hours, mean of n animals. The method, then: The experiments are performed with New Zealand white rabbits (weighing 2.3-3.5 kg) anaesthesized by intravenous (marginal ear vein) injection of 30 mg/kg sodium pentobarbital. Through a paramedical incision of the neck, the jugular veins and the right carotid artery are exposed. The right carotid artery is cannulated with a 1.5 mm diameter polyethylene cannula for blood sampling. The two jugular veins are isolated, cleared over a distance of 2 cm, small side branches are ligated. Each jugular segment is emptied of blood and blood flow is temporarily occluded both proximally and distally by two angiostaths, 1.5 cm apart. A 10 cm length 3.0 TiCron braided polyester suture, presoaked in a collagen solution, is introduced lengthwise in the lumen of the isolated jugular vein for a distance of 4 cm to avoid the embolization of the thrombus to be produced. 150 μl of citrated rabbit blood containing 5 μl of ^125 I-fibrinogen (approx. 500 000 cpm) is then aspirated in a 1 ml tubercoline syringe containing 50 μl (5 I.U.) of thrombin and 10 μl of CaCl2 (0.25M). […] At the end of the infusion, the thrombi remaining in the vessel are removed and their size is determined by measuring the amount of residual ^125 I-labeled fibrinogen remaining in the thrombi and comparing the results with those of the saline controls.

B1: t-PA: tissue-type plasminogen activator derived from melanoma cell cultures (BioResponse); infused with saline (protein, UniProt P00750 36-562, looked up)
Tissue-type plasminogen …: SYQVICRDEKTQMIYQQHQSWLRPVLRSNRVEYCWCNSGRAQCHSVPVKSCSEPRCFNGGTCQQALYFSDFVCQCPEGFAGKCCEIDTRATCYEDQGISYRGTWSTAESGAECTNWNSSALAQKPYSGRRPDAIRLGLGNHNYCRNPDRDSKPWCYVFKAGKYSSEFCSTPACSEGNSDCYFGNGSAYRGTHSLTESGASCLPWNSMILIGKVYTAQNPSAQALGLGKHNYCRNPDGDAKPWCHVLKNRRLTWEYCDVPSCSTCGLRQYSQPQFRIKGGLFADIASHPWQAAIFAKHRRSPGERFLCGGILISSCWILSAAHCFQERFPPHHLTVILGRTYRVVPGEEEQKFEVEKYIVHKEFDDDTYDNDIALLQLKSDSSRCAQESSVVRTVCLPPADLQLPDWTECELSGYGKHEALSPFYSERLKEAHVRLYPSSRCTSQHLLNRTVTDNMLCAGDTRSGGPQANLHDACQGDSGGPLVCLNDGRMTLVGIISWGLGCGQKDVPGVYTKVTNYLDWIRDNMRP
modifications: melanoma cell derived
notes: infused with saline
As to B1, the “125I-fibrinogen accreted onto the thrombus” value in experiment [1] turned out to be 52 µg. The “% lysis” value in experiment [2] (First set of experiments, hirudin 1 mg/kg) stood at 44%; in experiment [2] (Second set of experiments, heparin 0.75 mg/kg), 37%.
